Data: patent US6723838 (Johns Hopkins, dated 2004)

B1: SAP102 PDZ 3 subcloned into yeast vector pPC 86 (other, UniProt Q62936 404-484, looked up, not shown: large carriers)
chain: KIILHKGSTGLGFNIVGGEDGEGIFVSFILAGGPADLSGELRRGDRILSVNGVNLRNATHEQAAAALKRAGQSVTIVAQYR
notes: domain: PDZ 3; Limits of the pPC86 construct are not restated; the bait construct of the same domain covers 367 to 452; also called third PDZ domain of SAP102
B2: GluR1 subunit of rat brain (endogenous) (receptor, UniProt P19490 19-907, looked up)
chain: ANFPNNIQIGGLFPNQQSQEHAAFRFALSQLTEPPKLLPQIDIVNISDSFEMTYRFCSQFSKGVYAIFGFYERRTVNMLTSFCGALHVCFITPSFPVDTSNQFVLQLRPELQEALISIIDHYKWQTFVYIYDADRGLSVLQRVLDTAAEKNWQVTAVNILTTTEEGYRMLFQDLEKKKERLVVVDCESERLNAILGQIVKLEKNGIGYHYILANLGFMDIDLNKFKESGANVTGFQLVNYTDTIPARIMQQWRTSDSRDHTRVDWKRPKYTSALTYDGVKVMAEAFQSLRRQRIDISRRGNAGDCLANPAVPWGQGIDIQRALQQVRFEGLTGNVQFNEKGRRTNYTLHVIEMKHDGIRKIGYWNEDDKFVPAATDAQAGGDNSSVQNRTYIVTTILEDPYVMLKKNANQFEGNDRYEGYCVELAAEIAKHVGYSYRLEIVSDGKYGARDPDTKAWNGMVGELVYGRADVAVAPLTITLVREEVIDFSKPFMSLGISIMIKKPQKSKPGVFSFLDPLAYEIWMCIVFAYIGVSVVLFLVSRFSPYEWHSEEFEEGRDQTTSDQSNEFGIFNSLWFSLGAFMQQGCDISPRSLSGRIVGGVWWFFTLIIISSYTANLAAFLTVERMVSPIESAEDLAKQTEIAYGTLEAGSTKEFFRRSKIAVFEKMWTYMKSAEPSVFVRTTEEGMIRVRKSKGKYAYLLESTMNEYIEQRKPCDTMKVGGNLDSKGYGIATPKGSALRNPVNLAVLKLNEQGLLDKLKNKWWYDKGECGSGGGDSKDKTSALSLSNVAGVFYILIGGLGLAMLVALIEFCYKSRSESKRMKGFCLIPQQSINEAIRTSTLPRNSGAGASGGGGSGENGRVVSQDFPKSMQSIPCMSHSSGMPLGATGL
notes: also called NMDA receptor GluR1 subunit (so in the source)

Key:
[1] = target: T1, SYNGAP deletion mutant 894 to 1132 (-Q*) (rat, UniProt Q9QUH6 1067-1305); assay: yeast two-hybrid, HIS3 growth without leucine, tryptophan and histidine in 100 mM 3-aminotriazole
T1 construct: PCR generated deletion mutant, ends in -Q; not shown: The GAL4 two-hybrid fusion domain and its junction residues
T1 sequence: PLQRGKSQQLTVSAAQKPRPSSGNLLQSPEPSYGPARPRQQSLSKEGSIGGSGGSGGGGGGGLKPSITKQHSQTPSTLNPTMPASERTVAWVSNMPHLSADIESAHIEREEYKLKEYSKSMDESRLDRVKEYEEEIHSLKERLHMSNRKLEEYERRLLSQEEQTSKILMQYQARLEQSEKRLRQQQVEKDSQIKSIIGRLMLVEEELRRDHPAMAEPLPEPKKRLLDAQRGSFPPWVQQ
From the text: (§1) The PDZ domains of PSD-95/SAP90 and SAP102 were amplified by PCR and subcloned into the yeast vector, pPC 86. PDZ domain 1 of PSD-95 covers the amino acids from 40 to 160; PDZ domain 2, from 156 to 248; and PDZ domain 3, from 298 to 403. See e.g., Cho et al., (1992) Neuron 9:929 for disclosure relating to the PSD-95 sequence.

[2] = target: T2, SYNGAP deletion mutant 894 to 1134 (-QTR*) (rat, UniProt Q9QUH6 1067-1307); assay: as above
T2 construct: PCR generated deletion mutant, ends in -QTR; not shown: The GAL4 two-hybrid fusion domain and its junction residues
T2 sequence: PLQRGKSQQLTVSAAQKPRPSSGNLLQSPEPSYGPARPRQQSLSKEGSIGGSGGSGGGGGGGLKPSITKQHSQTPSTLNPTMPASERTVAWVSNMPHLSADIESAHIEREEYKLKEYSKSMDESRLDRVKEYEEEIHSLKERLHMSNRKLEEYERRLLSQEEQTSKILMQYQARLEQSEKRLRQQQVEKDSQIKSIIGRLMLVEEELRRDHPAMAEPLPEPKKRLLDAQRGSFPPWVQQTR
From the text: as §1

[3] = target: T3, SYNGAP of rat brain (endogenous) (rat, UniProt Q9QUH6 174-1308, limits assumed); assay: coimmunoprecipitation from deoxycholate solubilized rat brain membranes, immunoblot
T3 construct: Native protein in brain homogenates, deoxycholate extracts of brain membranes and cultured hippocampal neurons; runs as a doublet or triplet, so the isoform is not certain; also called 130 kDa protein in brain; doublet or triplet of proteins at 130 kDa
T3 sequence: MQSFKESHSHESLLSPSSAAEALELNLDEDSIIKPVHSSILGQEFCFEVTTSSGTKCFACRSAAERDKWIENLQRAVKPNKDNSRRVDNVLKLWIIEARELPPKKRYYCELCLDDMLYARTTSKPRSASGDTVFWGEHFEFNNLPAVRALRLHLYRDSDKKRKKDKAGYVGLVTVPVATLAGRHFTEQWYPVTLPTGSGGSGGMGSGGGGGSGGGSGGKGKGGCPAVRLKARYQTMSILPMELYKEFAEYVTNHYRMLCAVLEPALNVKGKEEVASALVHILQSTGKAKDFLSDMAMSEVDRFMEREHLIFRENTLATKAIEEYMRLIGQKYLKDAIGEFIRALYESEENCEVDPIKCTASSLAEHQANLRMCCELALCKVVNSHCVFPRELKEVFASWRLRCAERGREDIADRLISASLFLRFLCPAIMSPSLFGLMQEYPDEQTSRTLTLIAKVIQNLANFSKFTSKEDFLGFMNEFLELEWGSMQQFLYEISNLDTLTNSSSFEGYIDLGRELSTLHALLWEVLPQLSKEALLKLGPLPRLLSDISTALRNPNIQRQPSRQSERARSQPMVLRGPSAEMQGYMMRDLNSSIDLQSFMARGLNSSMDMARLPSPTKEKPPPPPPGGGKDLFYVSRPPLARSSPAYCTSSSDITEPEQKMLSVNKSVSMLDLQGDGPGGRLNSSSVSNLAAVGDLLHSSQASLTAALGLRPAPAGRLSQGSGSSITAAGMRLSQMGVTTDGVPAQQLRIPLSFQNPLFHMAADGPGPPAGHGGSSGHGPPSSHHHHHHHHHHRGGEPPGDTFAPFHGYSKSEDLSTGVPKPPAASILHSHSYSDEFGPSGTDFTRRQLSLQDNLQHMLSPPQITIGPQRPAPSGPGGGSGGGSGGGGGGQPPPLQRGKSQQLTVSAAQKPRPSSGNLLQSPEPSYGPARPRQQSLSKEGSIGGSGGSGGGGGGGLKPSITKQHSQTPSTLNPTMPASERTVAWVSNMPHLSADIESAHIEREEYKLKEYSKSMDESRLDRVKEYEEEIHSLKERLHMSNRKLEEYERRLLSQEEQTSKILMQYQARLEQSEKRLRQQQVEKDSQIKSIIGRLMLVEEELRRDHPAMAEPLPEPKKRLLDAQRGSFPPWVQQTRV
Method: Cortex and hippocampus from a male Sprague-Dawley rat, age of 4 to 6 weeks were homogenized twice using a glass-Teflon homogenizer with protease inhibitors (antipain, chymotrypsin, leupeptin, Trasylol, 0.1 mM PMSF). After determining the protein concentration of the P2 fraction by a Coomasie assay (Pierce), aliquots of the proteins at 3 mg/ml were stored at −80° C. until use. For coimmunoprecipitation, PA (300 μg per IP) was solubilized by 1.0% sodium deoxycholate followed by 0.1% Triton X-100 and the preparation was centrifuged for 10 minutes at 100,000×g. The supernatant was then used for coimmunoprecipitation.
The clarified supernatant of solubilized P2 fraction was then added to the sepharose beads and the mixture incubated for 2 to 3 hours at 4° C. […] When the antibodies were blocked with antigens, they were preincubated with the peptide at concentration of 100 µg/ml or fusion proteins at concentration of 50 µg/ml.

Row | Binder | binding result [1] | binding result [2] | binding result [3]
1 | B1 | no binding | no binding | 
2 | B2 |  |  | no binding
